Reference: PMC5503242
Blank lines part the entries; values can stand above or below the substance they belong to.

What was measured:
[1] = target: ClC-ec1, E. coli ClC protein (E. coli) (UniProt P37019); test: SEC; purified ClC-ec1, apparent mass around 150 kDa with associated detergent
[2] = target: ClC-rm1, ClC protein of Ralstonia metallidurans (WP_011515329), with C-terminal 6x(His) tag (Ralstonia metallidurans); test: SDS-PAGE (dimer resistant to denaturation); NUPAGE 4-12% Bis-Tris gel of ClC-rm1 eluted from Ni2+ resin or after SEC; Western blot with His tag antibody
[3] = target: ClC-rm1, ClC protein of Ralstonia metallidurans (WP_011515329), with C-terminal 6x(His) tag (Ralstonia metallidurans); test: SEC; Superose 6 or Superdex 200, 0.03% (w/v) DDM, 150 mM NaCl, 5 mM KCl, 20 mM Tris-HCl pH 8.0; also after exchange to DM, OG or amphipol A8-35
[4] = target: ClC-rm1_eGFP, ClC-rm1 with eGFP and a 10x(His) tag at the C-terminus (Ralstonia metallidurans); test: as above

stoichiometry N [1]: 2
Substance: ClC-ec1, E. coli ClC protein (from UniProt P37019 1-473) (natural protein)

stoichiometry N [2]: 2
stoichiometry N [3]: 2
Substance: ClC-rm1, ClC protein of Ralstonia metallidurans (WP_011515329), with C-terminal 6x(His) tag (natural protein)

stoichiometry N [4]: 2
Substance: ClC-rm1_eGFP, ClC-rm1 with eGFP and a 10x(His) tag at the C-terminus (natural protein)
